Assay [1] deals with T1, peptide S43A (alanine variant of …) (human, not fully specified).
T1 construct: Position is counted on IL-18
T1 peptide: YFGKLEAKC
The assay can be described thus: ELISA on BSA-crosslinked peptide (alanine scanning).

Assay [2] deals with T2, peptide K44A (alanine variant of …) (human, not fully specified).
T2 construct: Position is counted on IL-18
T2 peptide: YFGKLESAC
Described as above.

The target of assay [3] is T3, peptide F38A (alanine variant of …) (human, not fully specified).
T3 construct: Position is counted on IL-18
T3 peptide: YAGKLESKC
The description is as above.

Assay [4] has as its target T4, neoepitope peptide (positions 37 to 44, C-terminal Cys) with positions 41 to 44 substituted with alanine (human, not fully specified).
T4 construct: Member of the successive alanine series, derived from the description of the series; Positions are counted on IL-18; also called peptide having the presence of lysine at position 40
T4 peptide: YFGKAAAAC
The assay can be described thus: ELISA on BSA-crosslinked peptide (neoepitope fine analysis).

In assay [5] the target is T5, neoepitope peptide (positions 37 to 44, C-terminal Cys) with positions 42 to 44 substituted with alanine (human, not fully specified).
T5 construct: Member of the successive alanine series, derived from the description of the series; Positions are counted on IL-18; also called peptide having the presence of lysine at position 40
T5 peptide: YFGKLAAAC
The assay is described as above.

Assay [6] addresses T6, neoepitope peptide (positions 37 to 44, C-terminal Cys) with positions 43 to 44 substituted with alanine (human, not fully specified).
T6 construct: Member of the successive alanine series, derived from the description of the series; Positions are counted on IL-18; also called peptide having the presence of lysine at position 40
T6 peptide: YFGKLEAAC
The description is as above.

Assay [7] addresses T7, peptide G39A (alanine variant of …) (human, not fully specified).
T7 construct: Position is counted on IL-18
T7 peptide: YFAKLESKC
The assay can be described thus: ELISA on BSA-crosslinked peptide, alanine scanning; row [..].

The target of assay [8] is T8, peptide Y37A (alanine variant of …) (human, not fully specified).
T8 construct: Position is counted on IL-18
T8 peptide: AFGKLESKC
The assay can be described thus: ELISA on BSA-crosslinked peptide, alanine scanning; row AFGKLESK

Assay [9] addresses T3, peptide F38A (alanine variant of …). The assay can be described thus: ELISA on BSA-crosslinked peptide, alanine scanning; row YAGKLESK
Assay [10] addresses peptide K40A (alanine variant of …) (human, C-terminal Cys crosslinked to BSA in ELISA; thiol-coupled to sensor chip CM5 in SPR). The assay can be described thus: ELISA on BSA-crosslinked peptide, alanine scanning; row YFGALESK
Assay [11] addresses T9, peptide L41A (alanine variant of …) (human, not fully specified).
T9 construct: Position is counted on IL-18
T9 peptide: YFGKAESKC
The assay can be described thus: ELISA on BSA-crosslinked peptide, alanine scanning; row YFGKAESK

The target in assay [12] is T10, peptide E42A (alanine variant of …) (human, not fully specified).
T10 construct: Position is counted on IL-18
T10 peptide: YFGKLASKC
The assay can be described thus: ELISA on BSA-crosslinked peptide, alanine scanning; row YFGKLASK

The target in assay [13] is T1, peptide S43A (alanine variant of …). The assay can be described thus: ELISA on BSA-crosslinked peptide, alanine scanning; row YFGKLEAK
Assay [14] has as its target T2, peptide K44A (alanine variant of …). The assay can be described thus: ELISA on BSA-crosslinked peptide, alanine scanning; row YFGKLESA
Assay [15] addresses T11, neoepitope peptide (positions 37 to 44, C-terminal Cys) with positions 40 to 44 substituted with alanine (human, not fully specified).
T11 peptide: YFGAAAAAC
The assay can be described thus: ELISA on BSA-crosslinked peptide, neoepitope fine analysis; row YFGAAAAA

Assay [16] addresses T4, neoepitope peptide (positions 37 to 44, …). The assay can be described thus: ELISA on BSA-crosslinked peptide, neoepitope fine analysis; row YFGKAAAA
The target in assay [17] is T5, neoepitope peptide (positions 37 to 44, …). The assay can be described thus: ELISA on BSA-crosslinked peptide, neoepitope fine analysis; row YFGKLAAA
Assay [18] deals with T6, neoepitope peptide (positions 37 to 44, …). The assay can be described thus: ELISA on BSA-crosslinked peptide, neoepitope fine analysis; row YFGKLEAA
Assay [19] addresses T2, peptide K44A (alanine variant of …). The assay can be described thus: ELISA on BSA-crosslinked peptide, neoepitope fine analysis; row YFGKLESA
Assay [20] concerns the target T12, neoepitope peptide IL-18^37-44 with C-terminal cysteine (YFGKLESKC) (human, not fully specified).
T12 construct: also called IL-18^37-44 peptide; wild-type peptide
T12 peptide: YFGKLESKC
The assay can be described thus: SPR, Biacore X100, peptide thiol-coupled to CM5, antibody 0.4-250 nM, single-cycle, bivalent analysis.

The target of assay [21] is T12, neoepitope peptide IL-18^37-44 with …. The assay can be described thus: ELISA on BSA-crosslinked peptide, alanine scanning; row YFGKLESK (reference set as 100).
For assay [22] the target is unchanged. The assay can be described thus: ELISA on BSA-crosslinked peptide, neoepitope fine analysis; row YFGKLESK (reference set as 100).
Assay [23] addresses T13, activated IL-18 protein (IL-18^37-193) (human, UniProt Q14116 37-193).
T13 sequence (looked up): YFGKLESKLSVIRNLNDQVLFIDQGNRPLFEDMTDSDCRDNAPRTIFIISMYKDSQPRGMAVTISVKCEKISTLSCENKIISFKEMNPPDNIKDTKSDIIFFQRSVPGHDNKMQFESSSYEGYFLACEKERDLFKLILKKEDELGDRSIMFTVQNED
The assay can be described thus: cell-based or functional assay.

The text below walks through data of patent publication US20210317200A1 (MABPROTEIN, published 2021).

No end group written: not given here.

B1: monoclonal antibody 9-10.2 (antibody, V domains shown)
VH: SLTCSFSGFSLSSSGMGVGWIRQPSGKGLEWLAHIWWDDDKNYNPGLKSRLTISKDTSKNQVFLKIANVDTADAATYYCTRTRTYSNFGGGMAYWGQGTSVTVSS
VL: LGDQASISCRSSQSIAHSNGYTYLEWYLQTPGQSPKLLIYKVSNRFSGVPDRFSGSGSGTDFTLKISRVEAEDLGVYYCVQGSHVPLTFGAGTKLELK
Consider B1, for which the “percent binding relative to the wild-type peptide” value in assay [1], in [2] and in [3] was roughly 50% in each case. Also, the “reactivity relative to the wild-type peptide” value in [4], in assay [5] and in assay [6] was ~0.25 fraction of wild-type peptide each time. The “ELISA absorbance relative to wild-type peptide (= 100)” value in assay [7] worked out at 2.5; in assay [8], 0.3; in assay [9] it was 50; in [10], 2.6; in assay [11], 14; in assay [12], 20. In addition, the “ELISA absorbance relative to wild-type peptide (= 100)” value is 45 in [13]; 39 in assay [14]; 5 in assay [15]; 26 in assay [16]; 13 in [17]; 27 in assay [18]. Besides, the “ELISA absorbance relative to wild-type peptide (= 100)” value worked out at 44 in assay [19], 100 in assay [21] and 100 in assay [22]. In [20], the Kd came to 0.19 nM. The molecule also gave a kon in [20] of 210000 M⁻¹ s⁻¹.

B2: monoclonal antibody 8-4.1 (antibody, V domains shown)
VH: LSITCTVSGFSLTSYGVHWVRQPPGKGLEWLGVIWAGGSTNYNSALMSRLSISKDNSKSQVFLKMNSLQTDDTAMYYCARESSYDAMDYWGQGTSVTVSS
VL: DIVITQSPKSMSMSVGERVTLTCKASENVVTYVSWYQQKPEQSPKLMIYGASNRYTGVPDRFTGSGSATDFTLTISSVQAEDLADYHCGQGYSYPYTFGGGTKLEIK
Consider B2, for which the “IC50 (read off the curve)” value in assay [23] is roughly 0.6 µg. Besides, the “percent binding relative to the wild-type peptide” value in assay [1], in [2] and in [3] was roughly 50% throughout. In addition, the “reactivity relative to the wild-type peptide” value in assay [4], in assay [5] and in assay [6] was ~0.25 fraction of wild-type peptide throughout. The “ELISA absorbance relative to wild-type peptide (= 100)” value in [7] is 3.2; in assay [8], 0.8; in assay [9] it was 44; in [10], 1.8; in assay [11], 33; in assay [12] it was 34. The “ELISA absorbance relative to wild-type peptide (= 100)” value in [13] was 55; in assay [14] it was 67; in [15], 6; in assay [16], 27; in [17] it was 23; in assay [18], 56. The figures for the “ELISA absorbance relative to wild-type peptide (= 100)” value in assay [19], in assay [21] and in assay [22] were 27, 100 and 100, respectively.
